Laboratory results as given in paper doi:10.1101/2021.08.04.455045 (bioRxiv, 2021).

Target: T1, hUHRF1 tandem tudor domain, 10xHIS-TEV-TTD (aa 126-285) (human, UniProt Q96T88-1 126-285)
T1 sequence (looked up): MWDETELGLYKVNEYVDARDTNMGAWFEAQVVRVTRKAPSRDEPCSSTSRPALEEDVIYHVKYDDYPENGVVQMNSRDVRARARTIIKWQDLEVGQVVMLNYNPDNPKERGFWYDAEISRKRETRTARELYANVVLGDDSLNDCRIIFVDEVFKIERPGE
Assay: MST

binding result: binds
B1: hUHRF1 Linker 4 (aa 605-675)-6xHIS (domain or fragment, human, UniProt Q96T88-1 605-675, looked up)
chain: MQYPEGYLEALANREREKENSKREEEEQQEGGFASPRTGKGKWKRKSAGGGPSRAGSPRRTSKKTKVEPYS
